Read-outs that look alike come from different tables or passages of the source.
## Hrq1: Hrq1-7KR (K164R, K219R, K221R, K366R, K839R, K872R, K938R)
Ubiquitination at K164
  degradation_or_half_life: decreases
  expression_or_secretion: no change
Ubiquitination at K219
  degradation_or_half_life: decreases
  expression_or_secretion: no change
Ubiquitination at K221
  degradation_or_half_life: decreases
  expression_or_secretion: no change
Ubiquitination at K366
  degradation_or_half_life: decreases
  expression_or_secretion: no change
Ubiquitination at K839
  degradation_or_half_life: decreases
  expression_or_secretion: no change
Ubiquitination at K872
  degradation_or_half_life: decreases
  expression_or_secretion: no change
Ubiquitination at K938
  degradation_or_half_life: decreases
  expression_or_secretion: no change

From paper PMC9488787
